Experimental findings from US20180066058A1 (published 2018) are described below.

For experiment [1], the target named is T1, mouse ICOS-mFc (Chimerigen) (mouse, UniProt Q9WVS0 21-141, limits assumed).
T1 construct: also called mouse ICOS receptor; mouse ICOS Receptor; not shown: mouse Fc of the bought construct
T1 sequence: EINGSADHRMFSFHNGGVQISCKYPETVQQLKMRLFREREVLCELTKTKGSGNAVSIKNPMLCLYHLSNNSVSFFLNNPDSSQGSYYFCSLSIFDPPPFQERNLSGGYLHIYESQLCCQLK
Briefly: HTRF neutralisation of Alexa 647 mouse B7-H2 binding to mouse ICOS-mFc; human IgG4.PE; mean, n = 3. The method, then:
(§1) 5 μl of ICOS receptor (human ICOS-mFc, 20 nM, 5 nM final or mouse ICOS-mFc 4 nM, 1 nM final (Chimerigen)) was added to required wells. Plate was incubated for 1 hr at room temperature (RT).
(§2) Finally, 5 μl of anti-mouse IgG donor mAb (Southern Biotech) labelled with europium cryptate (Cis Bio), 40 nM, 10 nM final was added to each well and the assay was left in the dark at RT to incubate for a further 2 hours. After incubation, assay was read on Envision plate reader (Perkin Elmer) using a standard HTRF protocol. […] Titration curves and IC50 values [M] were plotted using Graphpad (Prism). IC50 values were calculated by first transforming the data using equation X=Log(X). The transformed data was then fitted using nonlinear regression, using fitting algorithm, log (inhibitor) vs. response—variable slope (four parameters).

Experiment [2] concerns the target T2, human ICOS-mFc (Chimerigen) (human, UniProt Q9Y6W8 21-140).
T2 construct: also called human ICOS receptor; human ICOS Receptor; not shown: mouse Fc of the bought construct
T2 sequence: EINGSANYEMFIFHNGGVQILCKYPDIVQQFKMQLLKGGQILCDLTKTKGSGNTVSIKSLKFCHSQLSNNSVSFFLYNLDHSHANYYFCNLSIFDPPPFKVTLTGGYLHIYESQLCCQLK
Briefly: HTRF neutralisation of Alexa 647 human B7-H2 binding to human ICOS-mFc; human IgG4.PE; mean, n = 4. The protocol:
as §1, §2

Experiment [3] deals with T1, mouse ICOS-mFc (Chimerigen). The experiment is described as follows: HTRF neutralisation of Alexa 647 mouse B7-H2 binding to mouse ICOS-mFc; human IgG1; mean, n = 3. The method, then: as §1, §2
Experiment [4] concerns the target T2, human ICOS-mFc (Chimerigen). The experiment is described as follows: HTRF neutralisation of Alexa 647 human B7-H2 binding to human ICOS-mFc; human IgG1; mean, n = 4. The protocol:
as §1, §2

The target in experiment [5] is T3, Human ICOS extracellular domain fused to human Fc (human, UniProt Q9Y6W8 21-140).
T3 construct: Dimeric protein made in house from NCBI NP_036224.1; also called hICOS; hICOS Fc; not shown: human Fc region
T3 sequence: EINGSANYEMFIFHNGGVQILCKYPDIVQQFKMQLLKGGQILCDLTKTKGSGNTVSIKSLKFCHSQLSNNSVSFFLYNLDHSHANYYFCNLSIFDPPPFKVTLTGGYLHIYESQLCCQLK
Briefly: SPR (ProteOn XPR36), human ICOS ECD-Fc captured, Fab analyte, pH 7.4, 37 C. The protocol: (§3) In addition, a comparison was performed of antibody:antigen binding affinity at different pH values. As before, the dimeric human ICOS protein, presented as the extracellular domain of ICOS fused to a human Fc region, was captured on the anti-human Fc capture surface created using the 3 antibody cocktail, immobilised on the GLC biosensor chip by primary amine coupling. SPR analysis of recombinantly expressed anti-ICOS Fabs was carried out on the ProteOn XPR36 Array system (Biorad). The Fab fragments were used as analyte to generate binding sensorgrams, which were double referenced with a buffer injection (i.e., 0 nM). The subsequent referenced sensorgrams were fitted to the 1:1 model inherent to the ProteOn analysis software. […] Data were fitted to the 1:1 model.

For experiment [6], the target named is T3, Human ICOS extracellular domain fused …. Briefly: SPR (ProteOn XPR36), human ICOS ECD-Fc captured, Fab analyte, pH 5.5, 37 C. The protocol: as §3
Experiment [7] has as its target T4, Mouse ICOS extracellular domain fused to human Fc (mouse, UniProt Q9WVS0 21-141).
T4 construct: Made in house from NCBI NP_059508.2; also called mICOS; mICOS Fc; not shown: human Fc region
T4 sequence: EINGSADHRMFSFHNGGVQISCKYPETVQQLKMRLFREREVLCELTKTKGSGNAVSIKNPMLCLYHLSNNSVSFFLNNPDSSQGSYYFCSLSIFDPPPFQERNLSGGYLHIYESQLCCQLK
The experiment is described as follows: SPR (ProteOn XPR36), Fc-tagged ICOS captured on anti-human IgG, Fab analyte, 25 C. The method, then: (§4) Fab affinities of the ICOS leads were generated by SPR using the ProteOn XPR3 6 (BioRad). An anti-human IgG capture surface was created on a GLC biosensor chip by primary amine coupling, immobilising three anti-human IgG antibodies (Jackson Labs 109-005-008, 109-006-008 and 309-006-008). […] Binding sensorgrams were double referenced using a buffer injection (i.e. 0 nM), and the data was fitted to the 1:1 model inherent to the ProteOn XPR36 analysis software. The assay was run at 25° C. and using HBS-EP as running buffer.

Experiment [8] deals with T3, Human ICOS extracellular domain fused …. Described as above. The protocol: as §4

B1: STIM003 human IgG4.PE (antibody, V domains shown)
VH: EVQLVESGGGVVRPGGSLRLSCVASGVTFDDYGMSWVRQAPGKGLEWVSGINWNGGDTDYSDSVKGRFTISRDNAKNSLYLQMNSLRAEDTALYYCARDFYGSGSYYHVPFDYWGQGILVTVSS
VL: EIVLTQSPGTLSLSPGERATLSCRASQSVSRSYLAWYQQKRGQAPRLLIYGASSRATGIPDRFSGDGSGTDFTLSISRLEPEDFAVYYCHQYDMSPFTFGPGTKVDIK
notes: Human IgG4.PE (null-effector) format
Consider B1, for which the IC50 is 0.2 nM in experiment [1] and 1.2 nM in experiment [2].

B2: STIM004 human IgG1 (antibody, V domains shown)
VH: EVQLVESGGGVVRPGGSLRLSCAASGLTFDDYGMSWVRQVPGKGLEWVSGINWNGDNTDYADSVKGRFTISRDNAKNSLYLQMNSLRAEDTALYYCARDYYGSGSYYNVPFDYWGQGTLVTVSS
VL: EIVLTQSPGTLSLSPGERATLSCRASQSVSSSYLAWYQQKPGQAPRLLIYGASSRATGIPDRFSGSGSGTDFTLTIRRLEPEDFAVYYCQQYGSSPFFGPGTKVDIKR
notes: Human IgG1 format
In the case of B2, the results for the IC50 in experiment [3] and in experiment [4] were 22.1 nM and 233 nM, respectively.

B3: STIM009 human IgG1 (antibody, V domains shown)
VH: QVQLVESGGGLVKPGGSLRLSCAASGFTFSDYYMSWIRQAPGKGLEWVSYISSSGSTIYYADSVKGRFTISRDNAKNSLYLQINSLRAEDTAVYYCARDFYDILTDSPYFYYGVDVWGQGTTVTVSS
VL: not shown
notes: Human IgG1 format
B3 registered an IC50 in experiment [4] of 30.5 nM.

B4: STIM009 human IgG4.PE (antibody, V domains shown)
VH: QVQLVESGGGLVKPGGSLRLSCAASGFTFSDYYMSWIRQAPGKGLEWVSYISSSGSTIYYADSVKGRFTISRDNAKNSLYLQINSLRAEDTAVYYCARDFYDILTDSPYFYYGVDVWGQGTTVTVSS
VL: not shown
notes: as for B1
On to B4, for which the IC50 in experiment [2] is 4.6 nM.

B5: STIM002-B human IgG4.PE (antibody, V domains shown)
VH: QVQLVQSGGEVKKPGASVKVSCKASGYTFTSYGFSWVRQAPGQGLEWMGWISAYNGNTNYAQKLQGRVTMTTDTSTSTAYMELRSLRSDDTAVYYCARSTYFYGSGTLYGMDVWGQGTTVTVSS
VL: DIVMTQSPLSLPVTPGEPASISCRSSQSLLHSDGYNCLDWYLQKPGQSPQLLIYLGSTRASGFPDRFSGSGSGTDFTLKISRVEAEDVGVYYCMQALQTPCSFGQGTKLEIK
notes: as for B1
Turning to B5, the figures for the IC50 in experiment [1] and in experiment [2] were 43.9 nM and 3.4 nM, respectively.

B6: STIM002 human IgG1 (antibody, V domains shown)
VH: QVQLVQSGGEVKKPGASVKVSCKASGYTFTSYGFSWVRQAPGQGLEWMGWISAYNGNTNYAQKLQGRVTMTTDTSTSTAYMELRSLRSDDTAVYYCARSTYFYGSGTLYGMDVWGQGTTVTVSS
VL: DIVMTQSPLSLPVTPGEPASISCRSSQSLLHSDGYNYLDWYLQKPGQSPQLLIYLGSTRASGFPDRFSGSGSGTDFTLKISRVEAEDVGVYYCMQALQTPLSFGQGTKLEIKR
notes: Human IgG1 format
On to B6, for which the values for the IC50 in experiment [3] and in experiment [4] were 6.9 nM and 1.9 nM, respectively.

B7: STIM002-B Fab (Fab, V domains shown)
VH: QVQLVQSGGEVKKPGASVKVSCKASGYTFTSYGFSWVRQAPGQGLEWMGWISAYNGNTNYAQKLQGRVTMTTDTSTSTAYMELRSLRSDDTAVYYCARSTYFYGSGTLYGMDVWGQGTTVTVSS
VL: DIVMTQSPLSLPVTPGEPASISCRSSQSLLHSDGYNCLDWYLQKPGQSPQLLIYLGSTRASGFPDRFSGSGSGTDFTLKISRVEAEDVGVYYCMQALQTPCSFGQGTKLEIK
notes: Recombinantly expressed purified Fab
On to B7, for which the figures for the Kd in experiment [5] and in experiment [6] were 41.8 nM and 26.6 nM, respectively.

B8: STIM002-B human IgG1 (antibody, V domains shown)
VH: QVQLVQSGGEVKKPGASVKVSCKASGYTFTSYGFSWVRQAPGQGLEWMGWISAYNGNTNYAQKLQGRVTMTTDTSTSTAYMELRSLRSDDTAVYYCARSTYFYGSGTLYGMDVWGQGTTVTVSS
VL: DIVMTQSPLSLPVTPGEPASISCRSSQSLLHSDGYNCLDWYLQKPGQSPQLLIYLGSTRASGFPDRFSGSGSGTDFTLKISRVEAEDVGVYYCMQALQTPCSFGQGTKLEIKR
notes: Human IgG1 format
On to B8, for which the values for the IC50 in experiment [3] and in experiment [4] were 30 nM and 3.6 nM, respectively.

B9: STIM001 human IgG4.PE (antibody, V domains shown)
VH: QVQVVQSGAEVKKPGASVKVSCKASGYTFSTFGITWVRQAPGQGLEWMGWISAYNGDTNYAQNLQGRVIMTTDTSTSTAYMELRSLRSDDTAVYYCARSSGHYYYYGMDVWGQGTTVTVSS
VL: DIVMTQSPLSLPVTPGEPASISCRSSQSLLHSNEYNYLDWYLQKPGQSPQLLIFLGSNRASGVPDRFSGSGSGTDFTLKITRVEAEDVGIYYCMQSLQTPLTFGGGTKVEIK
notes: as for B1
B9: the figures for the IC50 in experiment [1] and in experiment [2] were 4.7 nM and 1.3 nM, respectively.

B10: STIM006 Fab (Fab, V domains shown)
VH: QVQLVESGGGLVKPGGSLRLSCAASGFTFSDYFMSWIRQAPGKGLEWISYISSSGSTIYYADSVRGRFTISRDNAKYSLYLQMNSLRSEDTAVYYCARDHYDGSGIYPLYYYYGLDVWGQGTTVTVSS
VL: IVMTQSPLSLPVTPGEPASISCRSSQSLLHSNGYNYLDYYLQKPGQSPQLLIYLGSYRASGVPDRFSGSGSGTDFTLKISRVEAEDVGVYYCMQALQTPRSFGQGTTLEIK
notes: Purified Fab
B10: the Kd in experiment [7] is 318 nM; in experiment [8], 13.8 nM.

B11: STIM006 human IgG1 (antibody, V domains shown)
VH: QVQLVESGGGLVKPGGSLRLSCAASGFTFSDYFMSWIRQAPGKGLEWISYISSSGSTIYYADSVRGRFTISRDNAKYSLYLQMNSLRSEDTAVYYCARDHYDGSGIYPLYYYYGLDVWGQGTTVTVSS
VL: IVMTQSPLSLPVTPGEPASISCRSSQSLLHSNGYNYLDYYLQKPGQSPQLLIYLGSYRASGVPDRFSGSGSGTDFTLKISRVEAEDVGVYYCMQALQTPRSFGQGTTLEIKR
notes: Human IgG1 format
As to B11, the IC50 in experiment [4] turned out to be 2.2 nM.

B12: STIM005 human IgG4.PE (antibody, V domains shown)
VH: QVQLVQSGAEVKKPGASVKVSCKASGYTFNSYGIIWVRQAPGQGLEWMGWISVHNGNTNCAQKLQGRVTMTTDTSTSTAYMELRSLRTDDTAVYYCARAGYDILTDFSDAFDIWGHGTMVTVSS
VL: DIQMTQSPSSLSASVGDRVTITCRASQNINNFLNWYQQKEGKGPKLLIYAASSLQRGIPSTFSGSGSGTDFTLTISSLQPEDFATYICQQSYGIPWVGQGTKVEIK
notes: as for B1
With B12, the IC50 in experiment [1] turned out to be 0.3 nM; in experiment [2], 1.6 nM.

B13: STIM005 human IgG1 (antibody, V domains shown)
VH: QVQLVQSGAEVKKPGASVKVSCKASGYTFNSYGIIWVRQAPGQGLEWMGWISVHNGNTNCAQKLQGRVTMTTDTSTSTAYMELRSLRTDDTAVYYCARAGYDILTDFSDAFDIWGHGTMVTVSS
VL: DIQMTQSPSSLSASVGDRVTITCRASQNINNFLNWYQQKEGKGPKLLIYAASSLQRGIPSTFSGSGSGTDFTLTISSLQPEDFATYICQQSYGIPWVGQGTKVEIKR
notes: Human IgG1 format
In the case of B13, the IC50 was determined as 0.3 nM in experiment [3] and 2.5 nM in experiment [4].
